What was measured:
[1] = target: full-length VAMP2 (mouse His6-SUMO-VAMP2, residues 1-116) (mouse) (UniProt P63044)
[2] = target: Syntaxin1 (rat) (UniProt P32851)
Syntaxin1 (rat), sequence (P32851 whole entry): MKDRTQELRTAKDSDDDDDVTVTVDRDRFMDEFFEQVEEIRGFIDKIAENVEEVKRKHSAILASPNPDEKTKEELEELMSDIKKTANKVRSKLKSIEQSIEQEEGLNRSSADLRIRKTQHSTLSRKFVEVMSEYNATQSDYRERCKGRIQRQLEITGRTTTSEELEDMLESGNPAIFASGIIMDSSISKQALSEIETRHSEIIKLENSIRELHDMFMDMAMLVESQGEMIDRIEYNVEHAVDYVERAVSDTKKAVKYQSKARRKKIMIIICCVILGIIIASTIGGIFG

full-length VAMP2 (mouse His6-SUMO-VAMP2, residues 1-116) (mouse), sequence (P63044 whole entry, the tested form may be a part): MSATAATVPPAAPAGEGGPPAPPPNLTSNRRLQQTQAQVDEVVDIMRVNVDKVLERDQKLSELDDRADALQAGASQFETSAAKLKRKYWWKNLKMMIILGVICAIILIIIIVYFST

For “Munc13 D1358K (from UniProt Q62768 529-1407; Q62768 1453-1735) (domain or fragment)”, the single-vesicle fusion assay with 500 nM DHG: fraction of immobile clamped vesicles that fused upon 100 µM Ca2+ (wild type ~90%) [1] was 20%.
With “Munc13 N1128A/F1131A (from UniProt Q62768 529-1407; Q62768 1453-1735) (domain or fragment)” the single-vesicle fusion assay with 500 nM DHG: fraction of immobile clamped vesicles that fused upon 100 µM Ca2+ (wild type ~90%) [2] was 20%.

— paper PMC10450444
